The values that follow come from paper PMC7447767, “Molecular mechanism of mitochondrial phosphatidate transfer by Ups1” (Communications Biology, 2020).

What all share (conditions): both partners purified
The target in experiment [1] is T1, Ups1 (N-terminal 6x His-tagged full-length Ups1) (Saccharomyces cerevisiae, UniProt Q05776 1-175).
T1 construct: Ups1, Saccharomyces cerevisiae, full length, amplified from genomic DNA; Always handled as the co-expressed complex with Mdm35 or an Mdm35 truncation; also called WT; wild-type Ups1/Mdm35 (Ups1 chain); source: E. coli Trans B, co-expressed with Mdm35 from pETDuet-1, purified (Ni-chelated Sepharose, Superdex 75)
T1 sequence (looked up): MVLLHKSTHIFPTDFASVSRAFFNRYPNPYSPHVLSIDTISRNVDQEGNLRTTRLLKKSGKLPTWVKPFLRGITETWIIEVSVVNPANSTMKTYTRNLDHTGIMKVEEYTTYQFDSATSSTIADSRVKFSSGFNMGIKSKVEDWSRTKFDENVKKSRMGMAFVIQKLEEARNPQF
The experiment can be described thus: SEC; gel filtration of the Ups1/Mdm35 truncation mutants (Supplementary Fig. 8a).

For experiment [2], the target named is T2, selenomethionine-substituted Ups1 (Saccharomyces cerevisiae, UniProt Q05776 1-175, selenomethionine-substituted).
T2 construct: Ups1, Saccharomyces cerevisiae, full length, selenomethionine in place of methionine; also called SeMet-labeled Ups1; Ups1A; source: selenomethionine-derived Ups1/Mdm35 complex; expression of the SeMet form not described
T2 sequence (looked up): T1 sequence (looked up)
The experiment can be described thus: crystal structure; selenomethionine-substituted Ups1/Mdm35, SAD, 2.9 Å; hanging drop, 16 °C, 8% tacsimate pH 5.0, 20% PEG3350, sodium thiocyanate.

The target of a further experiment is T3, Ups1-3E mutant (Saccharomyces cerevisiae, UniProt Q05776 1-175, K140E | R146E | K154E).
T3 construct: Ups1, Saccharomyces cerevisiae, mutant of the full-length wild-type construct; limits not restated for the mutant; also called K140E/R146E/K154E; source: gene synthesized (Beijing SYKM); E. coli Trans B, purified with Mdm35
T3 sequence (looked up): T1 sequence (looked up) with K140E, R146E, K154E
Kind of experiment: co-sedimentation; liposome co-sedimentation: 20 μM Ups1/Mdm35 or mutants with DOPC/DOPA = 80/20 liposomes (8 mM), 20 mM Tris-HCl pH 7.5, 150 mM NaCl, 1 mM EDTA, 25 °C, 30 min; 250,000 g; Mdm35 in the pellet taken as complexed with liposome-bound Ups1.

The target of another experiment is T4, Ups1-2E mutant (Saccharomyces cerevisiae, UniProt Q05776 1-175, K140E | R146E).
T4 construct: Ups1, Saccharomyces cerevisiae, mutant of the full-length wild-type construct; limits not restated for the mutant; also called K140E/R146E; source: gene synthesized (Beijing SYKM); E. coli Trans B, purified with Mdm35
T4 sequence (looked up): T1 sequence (looked up) with K140E, R146E
The description is as above.

Another experiment has as its target T5, Ups1 F69L mutant (Saccharomyces cerevisiae, UniProt Q05776 1-175, F69L).
T5 construct: Ups1, Saccharomyces cerevisiae, mutant of the full-length wild-type construct; limits not restated for the mutant; source: gene synthesized (Beijing SYKM); E. coli Trans B, purified with Mdm35
T5 sequence (looked up): T1 sequence (looked up) with F69L
The experiment is described as above.

The target of a further experiment is T6, Ups1-4E mutant (Saccharomyces cerevisiae, UniProt Q05776 1-175, K140E | R146E | K154E | K166E).
T6 construct: Ups1, Saccharomyces cerevisiae, mutant of the full-length wild-type construct; limits not restated for the mutant; also called K140E/R146E/K154E/K166E; source: gene synthesized (Beijing SYKM); E. coli Trans B, purified with Mdm35
T6 sequence (looked up): T1 sequence (looked up) with K140E, R146E, K154E, K166E
The description is as above.

Changes are numbered by the printed parent chain.

B1: Mdm35ΔC14 (domain or fragment, Saccharomyces cerevisiae, UniProt O60200 1-72, looked up)
chain: MGNIMSASFAPECTDLKTKYDSCFNEWYSEKFLKGKSVENECSKQWYAYTTCVNAALVKQGIKPALDEAREE
notes: Mdm35, Saccharomyces cerevisiae, lacking the 14 C-terminal residues A73–K86; Limit worked out from the stated deletion A73–K86; also called Ups1/Mdm35ΔC14 (Mdm35 chain); source: gene synthesized (Beijing SYKM); E. coli Trans B, purified with Ups1
As for B1, the binding result in experiment [1] is “binds”.

B2: selenomethionine-substituted Mdm35 (natural protein, Saccharomyces cerevisiae, UniProt O60200 1-86, looked up)
chain: MGNIMSASFAPECTDLKTKYDSCFNEWYSEKFLKGKSVENECSKQWYAYTTCVNAALVKQGIKPALDEAREEAPFENGGKLKEVDK
modifications: selenomethionine-substituted
notes: Mdm35, Saccharomyces cerevisiae, full length, selenomethionine in place of methionine; also called SeMet-labeled Mdm35; Mdm35A; source: selenomethionine-derived Ups1/Mdm35 complex; expression of the SeMet form not described
For B2, the binding result in experiment [2] is reported as “binds”.

B3: Mdm35 (full-length) (natural protein, Saccharomyces cerevisiae, UniProt O60200 1-86, looked up)
chain: B2 chain
notes: Mdm35, Saccharomyces cerevisiae, full length, amplified from genomic DNA; Two disulfide bridges (C13-C52 and C23-C42) between the αA and αB helices are seen in the structure; also called WT; wild-type Ups1/Mdm35 (Mdm35 chain); source: E. coli Trans B, co-expressed with His-tagged Ups1 from pETDuet-1, purified (Ni-chelated Sepharose, Superdex 75)
On to B3, for which the binding result with Ups1-3E mutant, in the experiment with Ups1-2E mutant, with Ups1 F69L mutant and with Ups1-4E mutant was “binds” each time.

B4: Mdm35ΔC5 (domain or fragment, Saccharomyces cerevisiae, UniProt O60200 1-81, looked up)
chain: MGNIMSASFAPECTDLKTKYDSCFNEWYSEKFLKGKSVENECSKQWYAYTTCVNAALVKQGIKPALDEAREEAPFENGGKL
notes: Mdm35, Saccharomyces cerevisiae, lacking the five C-terminal residues K82–K86; Limit worked out from the stated deletion K82–K86; also called Ups1/Mdm35ΔC5 (Mdm35 chain); source: gene synthesized (Beijing SYKM); E. coli Trans B, purified with Ups1
For B4, the binding result in experiment [1] was “binds”.
